Measured values: paper PMC7688639

Key:
[1] = molecular target: actin filaments (F-actin) polymerised from rabbit muscle actin (rabbit) (UniProt P68135); experiment: single-molecule TIRF binding kinetics (dwell times); as a1, actin filaments co-polymerized with 5 µM biotin-phalloidin
[2] = molecular target: actin filaments (F-actin) polymerised from rabbit muscle actin (rabbit) (UniProt P68135); experiment: single-molecule TIRF binding kinetics (on-rate); tethered actin filaments; frequency of binding events for a range of concentrations of actin-binding domain, linear regression of frequency against concentration
[3] = molecular target: actin filaments (F-actin) polymerised from rabbit muscle actin (rabbit) (UniProt P68135); experiment: single-molecule TIRF binding kinetics (dwell times); as a1, in the presence of 200 nM HMM
[4] = molecular target: actin filaments (F-actin) polymerised from rabbit muscle actin (rabbit) (UniProt P68135); experiment: single-molecule TIRF binding kinetics (dwell times); as a1, with 1 µM phalloidin added after the filaments had been tethered
[5] = molecular target: actin filaments (F-actin) polymerised from rabbit muscle actin (rabbit) (UniProt P68135); experiment: single-molecule TIRF binding kinetics (dwell times); as a1, in the presence of 200 nM drebrin 1–300
[6] = molecular target: actin filaments (F-actin) polymerised from rabbit muscle actin (rabbit) (UniProt P68135); experiment: single-molecule TIRF binding kinetics (dwell times); dual colour with 10 nM Atto-488-cofilin and Alexa-555-utrn (0.05–0.1 nM), 450 ms per frame; events far (>30 nm) from a cofilin binding event
[7] = molecular target: actin filaments (F-actin) polymerised from rabbit muscle actin (rabbit) (UniProt P68135); experiment: single-molecule TIRF binding kinetics (dwell times); dual colour with 10 nM Atto-488-cofilin and Alexa-555-utrn (0.05–0.1 nM), 450 ms per frame; events near (<30 nm) a cofilin binding event; only τ1 fitted
[8] = molecular target: actin filaments (F-actin) polymerised from rabbit muscle actin (rabbit) (UniProt P68135); experiment: single-molecule TIRF binding kinetics (dwell times); as a1, with 1 µM jasplakinolide added after the filaments had been tethered
[9] = molecular target: actin filaments (F-actin) polymerised from rabbit muscle actin (rabbit) (UniProt P68135); experiment: single-molecule TIRF binding kinetics (dwell times); actin filaments tethered to a PEG/biotin-PEG coverslip by streptavidin and biotin-phalloidin; labelled binding domain in solution at ~0.05–0.1 nM; 25 mM imidazole, 25 mM KCl, 4 mM MgCl2, 1 mM EGTA, 1 mM DTT, pH 7.4, 10 µg/mL beta casein; double exponential fit of the CDF, bleaching corrected

utrophin actin-binding domain Δ-nterm Q33A T36A (domain or fragment)
dwell time τ1 (first timescale) [1]: 0.41 s | kon [2]: 2.1e+06 M⁻¹ s⁻¹ | dwell time τ1 (first timescale) [3]: 0.4 s | dwell time τ1 (first timescale) [4]: 0.49 s | dwell time τ1 (first timescale) [5]: 0.34 s | dwell time τ1 (first timescale) [6]: 0.44 s | dwell time τ1 (first timescale) [7]: 0.57 s | dwell time τ1 (first timescale) [8]: 0.47 s | average dwell time (τav) [9]: 0.8 s | dwell time τ1 (first timescale) [9]: 0.42 s | ratio of the two dwell-time scales (τ2/τ1) [9]: 9.6
